Measurements as given in patent publication US20030165934.

Experiments:
[1] = tested on: full length Flag-ATRIP protein purified from insect cells following baculovirus infection
[2] = tested on: NH2-terminal fragment of ATRIP isolated from bacteria
Chain of NH2-terminal fragment of ATRIP isolated from bacteria (chain, as listed by the source): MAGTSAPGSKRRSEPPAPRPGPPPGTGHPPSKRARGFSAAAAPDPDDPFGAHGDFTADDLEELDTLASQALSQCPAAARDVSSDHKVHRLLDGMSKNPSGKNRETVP

Chain of Flag-ATR (ATR tagged with a Flag epitope, overexpressed in 293/293T cells) (chain, as listed by the source): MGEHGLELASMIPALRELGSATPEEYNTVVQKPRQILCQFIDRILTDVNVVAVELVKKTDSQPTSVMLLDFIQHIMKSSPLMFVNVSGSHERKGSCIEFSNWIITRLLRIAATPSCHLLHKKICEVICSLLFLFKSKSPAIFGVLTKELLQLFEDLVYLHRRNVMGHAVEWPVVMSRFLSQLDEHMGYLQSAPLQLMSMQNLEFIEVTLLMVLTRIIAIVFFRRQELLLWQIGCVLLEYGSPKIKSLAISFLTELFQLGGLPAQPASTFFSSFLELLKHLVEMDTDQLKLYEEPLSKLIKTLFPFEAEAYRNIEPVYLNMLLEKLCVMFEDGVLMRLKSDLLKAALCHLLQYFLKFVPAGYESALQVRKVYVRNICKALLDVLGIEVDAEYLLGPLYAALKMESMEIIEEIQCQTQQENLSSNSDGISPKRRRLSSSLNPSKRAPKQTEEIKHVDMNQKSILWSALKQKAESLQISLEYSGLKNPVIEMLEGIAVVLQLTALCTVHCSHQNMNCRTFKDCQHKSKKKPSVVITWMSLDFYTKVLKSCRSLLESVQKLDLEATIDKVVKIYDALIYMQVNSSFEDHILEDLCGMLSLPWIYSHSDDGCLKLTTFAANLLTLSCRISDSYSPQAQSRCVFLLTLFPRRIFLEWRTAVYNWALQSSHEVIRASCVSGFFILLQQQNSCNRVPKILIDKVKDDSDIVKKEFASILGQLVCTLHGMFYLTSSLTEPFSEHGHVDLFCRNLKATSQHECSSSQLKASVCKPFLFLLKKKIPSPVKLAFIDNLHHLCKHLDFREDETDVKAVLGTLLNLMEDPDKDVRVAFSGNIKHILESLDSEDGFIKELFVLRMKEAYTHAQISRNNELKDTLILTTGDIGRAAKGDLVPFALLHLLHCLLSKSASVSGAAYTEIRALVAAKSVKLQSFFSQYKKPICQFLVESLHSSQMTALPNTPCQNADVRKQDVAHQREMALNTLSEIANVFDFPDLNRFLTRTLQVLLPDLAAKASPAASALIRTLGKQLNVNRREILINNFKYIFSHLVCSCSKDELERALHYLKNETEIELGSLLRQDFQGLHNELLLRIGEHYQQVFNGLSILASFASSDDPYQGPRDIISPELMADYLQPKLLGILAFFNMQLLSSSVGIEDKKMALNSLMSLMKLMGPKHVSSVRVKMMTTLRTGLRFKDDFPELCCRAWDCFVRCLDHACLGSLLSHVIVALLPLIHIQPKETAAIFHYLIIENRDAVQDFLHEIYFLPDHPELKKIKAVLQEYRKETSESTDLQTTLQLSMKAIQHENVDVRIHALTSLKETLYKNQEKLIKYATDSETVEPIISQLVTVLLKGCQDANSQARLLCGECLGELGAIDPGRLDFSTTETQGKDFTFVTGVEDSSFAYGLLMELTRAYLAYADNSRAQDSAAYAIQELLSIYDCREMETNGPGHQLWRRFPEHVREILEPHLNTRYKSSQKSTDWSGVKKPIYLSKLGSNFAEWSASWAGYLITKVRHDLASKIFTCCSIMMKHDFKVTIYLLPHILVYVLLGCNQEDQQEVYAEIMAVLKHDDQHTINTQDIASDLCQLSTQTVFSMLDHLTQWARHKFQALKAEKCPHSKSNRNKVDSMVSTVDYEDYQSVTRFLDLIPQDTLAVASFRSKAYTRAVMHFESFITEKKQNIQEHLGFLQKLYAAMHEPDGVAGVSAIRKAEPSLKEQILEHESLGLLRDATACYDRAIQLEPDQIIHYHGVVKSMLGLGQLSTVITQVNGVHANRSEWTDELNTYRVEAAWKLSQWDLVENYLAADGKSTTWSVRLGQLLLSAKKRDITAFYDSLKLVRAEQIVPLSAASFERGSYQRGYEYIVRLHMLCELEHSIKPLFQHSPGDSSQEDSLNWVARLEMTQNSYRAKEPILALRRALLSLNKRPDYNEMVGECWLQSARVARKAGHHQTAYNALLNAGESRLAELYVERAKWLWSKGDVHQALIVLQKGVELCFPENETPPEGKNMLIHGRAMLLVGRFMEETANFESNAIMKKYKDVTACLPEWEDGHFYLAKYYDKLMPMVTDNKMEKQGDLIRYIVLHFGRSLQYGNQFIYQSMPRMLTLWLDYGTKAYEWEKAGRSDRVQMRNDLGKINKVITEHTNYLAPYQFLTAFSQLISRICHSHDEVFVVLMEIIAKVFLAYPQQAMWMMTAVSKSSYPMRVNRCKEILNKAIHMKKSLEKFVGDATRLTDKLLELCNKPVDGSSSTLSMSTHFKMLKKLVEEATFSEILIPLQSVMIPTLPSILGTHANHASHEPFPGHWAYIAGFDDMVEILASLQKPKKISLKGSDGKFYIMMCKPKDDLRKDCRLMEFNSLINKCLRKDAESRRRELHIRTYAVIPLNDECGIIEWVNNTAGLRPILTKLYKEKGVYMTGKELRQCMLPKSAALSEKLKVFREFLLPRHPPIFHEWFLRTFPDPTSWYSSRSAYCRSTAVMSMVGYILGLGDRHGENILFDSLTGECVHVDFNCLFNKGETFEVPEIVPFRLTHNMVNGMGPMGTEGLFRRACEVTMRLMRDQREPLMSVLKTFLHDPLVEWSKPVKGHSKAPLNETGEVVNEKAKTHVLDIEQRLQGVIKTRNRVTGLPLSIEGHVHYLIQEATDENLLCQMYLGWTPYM

“Flag-ATR (ATR tagged with a Flag epitope, overexpressed in 293/293T cells)” was tested, and the “^32P-labeling in kinase assay” value (Myc(3x)-tagged ATRIP) was “kinase assays with Flag-ATR immunoprecipitated from cells that also expressed Myc-ATRIP revealed ^32P-labeling of co-immunoprecipitated Myc-ATRIP”, the “phosphorylation in a kinase reaction” value [1] was “recombinant full-length ATRIP isolated from baculovirus-infected insect cells and an NH2-terminal fragment of ATRIP isolated from bacteria could both be phosphorylated when placed in a kinase reaction with ATR isolated from human cells” and the “phosphorylation in a kinase reaction” value [2] was “recombinant full-length ATRIP isolated from baculovirus-infected insect cells and an NH2-terminal fragment of ATRIP isolated from bacteria could both be phosphorylated when placed in a kinase reaction with ATR isolated from human cells”.
